From patent US20210253998A1 (published 2021)

Tests used:
[1] = molecular target: T1, Mta2 (endogenous, mouse cells) (mouse, UniProt Q9R190 1-668); test: co-IP from a control ESC line, western blot
T1 sequence (looked up): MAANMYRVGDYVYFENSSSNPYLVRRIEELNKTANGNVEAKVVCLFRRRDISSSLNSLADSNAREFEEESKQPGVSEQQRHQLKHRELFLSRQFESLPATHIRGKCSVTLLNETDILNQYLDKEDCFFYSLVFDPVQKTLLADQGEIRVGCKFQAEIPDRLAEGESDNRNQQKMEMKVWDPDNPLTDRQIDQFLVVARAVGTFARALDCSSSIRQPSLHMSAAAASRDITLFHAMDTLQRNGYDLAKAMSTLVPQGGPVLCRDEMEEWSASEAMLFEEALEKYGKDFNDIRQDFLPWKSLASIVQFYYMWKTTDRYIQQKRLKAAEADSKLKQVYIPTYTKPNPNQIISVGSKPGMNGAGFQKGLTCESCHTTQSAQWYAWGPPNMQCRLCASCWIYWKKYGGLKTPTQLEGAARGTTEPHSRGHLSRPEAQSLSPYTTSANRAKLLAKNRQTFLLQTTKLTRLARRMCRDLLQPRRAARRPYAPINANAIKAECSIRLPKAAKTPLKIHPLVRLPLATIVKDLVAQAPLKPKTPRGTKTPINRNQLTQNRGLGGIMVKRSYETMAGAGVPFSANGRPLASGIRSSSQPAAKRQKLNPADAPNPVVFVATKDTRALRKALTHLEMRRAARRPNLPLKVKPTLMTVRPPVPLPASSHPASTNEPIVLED

[2] = molecular target: T2, Mbd2 (endogenous, mouse ESCs) (mouse, UniProt Q9Z2E1 1-414, limits assumed); test: pull down of Mbd2 from a control ESC line, western blot
T2 sequence (Q9Z2E1 whole entry): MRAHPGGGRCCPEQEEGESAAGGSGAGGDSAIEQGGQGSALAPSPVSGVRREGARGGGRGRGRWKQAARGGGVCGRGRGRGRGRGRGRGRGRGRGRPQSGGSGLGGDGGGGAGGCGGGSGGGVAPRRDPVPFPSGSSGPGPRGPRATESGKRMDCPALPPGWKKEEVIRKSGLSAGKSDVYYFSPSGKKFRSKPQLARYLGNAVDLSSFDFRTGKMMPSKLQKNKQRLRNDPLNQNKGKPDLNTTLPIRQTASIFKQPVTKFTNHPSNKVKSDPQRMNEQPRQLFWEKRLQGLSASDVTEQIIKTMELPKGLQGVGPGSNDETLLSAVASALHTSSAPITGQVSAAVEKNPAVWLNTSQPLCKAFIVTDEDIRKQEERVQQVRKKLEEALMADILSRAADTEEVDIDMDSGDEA

[3] = molecular target: T2, Mbd2 (endogenous, mouse ESCs); test: co-IP with flag beads from ESCs carrying a Flag-tagged Mbd3 transgene, western blot
Source text: FIG. 61A—The present inventors established an ESC line carrying recovery of Flag-tagged Mbd3 transgene inserted in Mbd3^{-/-} ESC line. […] Moreover, Mbd3 interacts with Sall4 pluripotency reprogramming factor in ESCs. […] These assays recapitulate observation in many other cell lines where Mbd2 and Mbd3 form mutually exclusive complexes (Le Guezennec, X. et al. Mol. Cell. Biol. 26, 843-851, 2006; Aguilera, C. et al. Nature 469, 231-235, 2011).

B1: Mbd3 (endogenous, mouse cells) (other, UniProt Q9Z2D8 1-285, looked up)
chain: MERKRWECPALPQGWEREEVPRRSGLSAGHRDVFYYSPSGKKFRSKPQLARYLGGSMDLSTFDFRTGKMLMNKMNKSRQRVRYDSSNQVKGKPDLNTALPVRQTASIFKQPVTKITNHPSNKVKSDPQKAVDQPRQLFWEKKLSGLSAFDIAEELVRTMDLPKGLQGVGPGCTDETLLSAIASALHTSTLPITGQLSAAVEKNPGVWLNTAQPLCKAFMVTDDDIRKQEELVQQVRKRLEEALMADMLAHVEELARDGEAPLDKACAEEEEEEEEEEEEPEPERV
binding result [1]: binds | binding result [2]: no binding

B2: Flag-tagged Mbd3 (other)
chain: MERKRWECPALPQGWEREEVPRRSGLSAGHRDVFYYSPSGKKFRSKPQLARYLGGSMDLSTFDFRTGKMLMSKMNKSRQRVRYDSSNQVKGKPDLNTALPVRQTASIFKQPVTKITNHPSNKVKSDPQKAVDQPRQLFWEKKLSGLNAFDIAEELVKTMDLPKGLQGVGPGCTDETLLSAIASALHTSTMPITGQLSAAVEKNPGVWLNTTQPLCKAFMVTDEDIRKQEELVQQVRKRLEEALMADMLAHVEELARDGEAPLDKACAEDDDEEDEEEEEEEPDPDPEMEHV
notes: also called pCaggs-Flag-Mbd3; Flag-tagged Mbd3 transgene; not shown: Flag tag
binding result [3]: no binding
